Test results as given in publication PMC9107400.

Experiments:
[1] = biological target: N-terminal FLAG-tagged SMAD4 (UniProt Q13485); assay: co-IP; HEK293T cells transfected with FLAG-tagged SMAD4 (or its deletion constructs) and AR constructs, treated with DHT 10 nM and BMP7 50 ng/mL for 12 h; nuclear extracts incubated overnight at 4 °C with anti-FLAG or anti-AR antibody (IgG isotype as control) on protein G Dynabeads; Western blot for AR and SMAD4
AR65Q (human) = AR65Q (human) (UniProt P10275); assay: co-IP; cell-free ('in vitro pull-down'): FLAG-SMAD4 (TNT wheat germ) and GST-AR constructs (E. coli S30) in vitro translated, equal amounts mixed overnight at 4 °C, captured with anti-GST antibody on protein G Dynabeads, Western blot with anti-FLAG

Substance	binding compared to wild type [1]	binding compared to wild type (AR65Q (human))
AR100Q (from UniProt P10275 1-920) (natural protein)	50%	–
FLAG-tagged SMAD4, in vitro translated (from UniProt Q13485 1-552) (natural protein)	–	70%
